# Article PMC6056499, “A systematic dissection of sequence elements determining β-Klotho and FGF interaction and signaling” (Scientific Reports, 2018)
# Target: human β-Klotho extracellular domain (aa1–992) fused with a 6 × His tag at the C-terminus (UniProt Q86Z14)
# Test: solid-phase binding assay
# Settings: parent: est. 1.0; read off a plot
# human β-Klotho extracellular domain (aa1–992) fused with a 6 × His tag at the C-terminus, sequence (Q86Z14 53-992): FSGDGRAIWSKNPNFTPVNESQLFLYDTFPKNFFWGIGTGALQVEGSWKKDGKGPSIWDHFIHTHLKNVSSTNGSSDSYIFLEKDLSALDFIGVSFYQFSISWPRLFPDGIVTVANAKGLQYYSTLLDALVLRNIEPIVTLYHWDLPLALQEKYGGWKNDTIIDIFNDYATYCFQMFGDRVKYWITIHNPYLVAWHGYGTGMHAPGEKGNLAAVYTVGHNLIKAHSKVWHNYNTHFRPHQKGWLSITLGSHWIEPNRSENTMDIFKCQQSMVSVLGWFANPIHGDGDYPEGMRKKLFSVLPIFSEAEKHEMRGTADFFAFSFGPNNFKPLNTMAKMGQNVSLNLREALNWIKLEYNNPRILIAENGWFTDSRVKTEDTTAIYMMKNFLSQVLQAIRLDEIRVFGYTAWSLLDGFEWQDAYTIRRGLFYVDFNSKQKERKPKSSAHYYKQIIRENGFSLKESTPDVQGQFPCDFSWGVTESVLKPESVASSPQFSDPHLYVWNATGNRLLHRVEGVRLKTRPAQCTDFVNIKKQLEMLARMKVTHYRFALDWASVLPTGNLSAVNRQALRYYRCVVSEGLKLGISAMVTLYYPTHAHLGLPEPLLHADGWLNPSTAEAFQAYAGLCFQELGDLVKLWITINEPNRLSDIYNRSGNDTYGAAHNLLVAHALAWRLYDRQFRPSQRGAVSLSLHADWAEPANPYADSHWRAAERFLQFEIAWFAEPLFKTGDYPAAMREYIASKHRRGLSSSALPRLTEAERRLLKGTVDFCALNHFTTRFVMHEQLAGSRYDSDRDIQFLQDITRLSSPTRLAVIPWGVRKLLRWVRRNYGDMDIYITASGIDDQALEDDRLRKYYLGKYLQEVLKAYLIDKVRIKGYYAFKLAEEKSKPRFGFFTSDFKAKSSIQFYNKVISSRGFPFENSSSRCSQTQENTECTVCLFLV
# mature human FGF21 polypeptide fused with the human Fc fragment at the N-terminus (Fc-FGF21), wild type (from UniProt Q9NSA1) 176E-A, sequence (Q9NSA1 29-209, change not shown): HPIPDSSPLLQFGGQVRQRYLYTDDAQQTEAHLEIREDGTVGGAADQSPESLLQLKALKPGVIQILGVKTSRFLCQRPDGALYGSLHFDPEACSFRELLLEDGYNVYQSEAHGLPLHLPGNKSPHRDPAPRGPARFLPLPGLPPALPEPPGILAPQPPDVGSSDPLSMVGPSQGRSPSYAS
# mature human FGF21 polypeptide fused with the human Fc fragment at the N-terminus (Fc-FGF21), wild type (from UniProt Q9NSA1) 179G-R, sequence (Q9NSA1 29-209, change not shown): as above
# mature human FGF21 polypeptide fused with the human Fc fragment at the N-terminus (Fc-FGF21), wild type (from UniProt Q9NSA1) 183P-R, sequence (Q9NSA1 29-209, change not shown): as above
# mature human FGF21 polypeptide fused with the human Fc fragment at the N-terminus (Fc-FGF21), wild type (from UniProt Q9NSA1) 176E-R, sequence (Q9NSA1 29-209, change not shown): as above
# mature human FGF21 polypeptide fused with the human Fc fragment at the N-terminus (Fc-FGF21), wild type (from UniProt Q9NSA1) 173A-R, sequence (Q9NSA1 29-209, change not shown): as above
# mature human FGF21 polypeptide fused with the human Fc fragment at the N-terminus (Fc-FGF21), wild type (from UniProt Q9NSA1) 177P-A, sequence (Q9NSA1 29-209, change not shown): as above
# mature human FGF21 polypeptide fused with the human Fc fragment at the N-terminus (Fc-FGF21), wild type (from UniProt Q9NSA1) 187D-A, sequence (Q9NSA1 29-209, change not shown): as above
# mature human FGF21 polypeptide fused with the human Fc fragment at the N-terminus (Fc-FGF21), wild type (from UniProt Q9NSA1) 182A-R, sequence (Q9NSA1 29-209, change not shown): as above
# mature human FGF21 polypeptide fused with the human Fc fragment at the N-terminus (Fc-FGF21), wild type (from UniProt Q9NSA1) 183P-A, sequence (Q9NSA1 29-209, change not shown): as above
# mature human FGF21 polypeptide fused with the human Fc fragment at the N-terminus (Fc-FGF21), wild type (from UniProt Q9NSA1) 164F-R, sequence (Q9NSA1 29-209, change not shown): as above
# mature human FGF21 polypeptide fused with the human Fc fragment at the N-terminus (Fc-FGF21), wild type (from UniProt Q9NSA1) 174P-R, sequence (Q9NSA1 29-209, change not shown): as above
# mature human FGF21 polypeptide fused with the human Fc fragment at the N-terminus (Fc-FGF21), wild type (from UniProt Q9NSA1) 180I-R, sequence (Q9NSA1 29-209, change not shown): as above
# mature human FGF21 polypeptide fused with the human Fc fragment at the N-terminus (Fc-FGF21), wild type (from UniProt Q9NSA1) 168P-A, sequence (Q9NSA1 29-209, change not shown): as above
# mature human FGF21 polypeptide fused with the human Fc fragment at the N-terminus (Fc-FGF21), wild type (from UniProt Q9NSA1) 170L-A, sequence (Q9NSA1 29-209, change not shown): as above
# mature human FGF21 polypeptide fused with the human Fc fragment at the N-terminus (Fc-FGF21), wild type (from UniProt Q9NSA1) 185P-R, sequence (Q9NSA1 29-209, change not shown): as above
# mature human FGF21 polypeptide fused with the human Fc fragment at the N-terminus (Fc-FGF21), wild type (from UniProt Q9NSA1) 184Q-A, sequence (Q9NSA1 29-209, change not shown): as above
# mature human FGF21 polypeptide fused with the human Fc fragment at the N-terminus (Fc-FGF21), wild type (from UniProt Q9NSA1) 172P-A, sequence (Q9NSA1 29-209, change not shown): as above
# mature human FGF21 polypeptide fused with the human Fc fragment at the N-terminus (Fc-FGF21), wild type (from UniProt Q9NSA1) 179G-A, sequence (Q9NSA1 29-209, change not shown): as above
# mature human FGF21 polypeptide fused with the human Fc fragment at the N-terminus (Fc-FGF21), wild type (from UniProt Q9NSA1) 171P-R, sequence (Q9NSA1 29-209, change not shown): as above
# mature human FGF21 polypeptide fused with the human Fc fragment at the N-terminus (Fc-FGF21), wild type (from UniProt Q9NSA1) 167L-R, sequence (Q9NSA1 29-209, change not shown): as above
row,Substance,ratio to parent
1,"mature human FGF21 polypeptide fused with the human Fc fragment at the N-terminus (Fc-FGF21), wild type (from UniProt Q9NSA1) 164F-A",0.8
2,"mature human FGF21 polypeptide fused with the human Fc fragment at the N-terminus (Fc-FGF21), wild type (from UniProt Q9NSA1) 164F-R",3
3,"mature human FGF21 polypeptide fused with the human Fc fragment at the N-terminus (Fc-FGF21), wild type (from UniProt Q9NSA1) 165L-A",1
4,"mature human FGF21 polypeptide fused with the human Fc fragment at the N-terminus (Fc-FGF21), wild type (from UniProt Q9NSA1) 166P-R",2.6
5,"mature human FGF21 polypeptide fused with the human Fc fragment at the N-terminus (Fc-FGF21), wild type (from UniProt Q9NSA1) 167L-A",0.4
6,"mature human FGF21 polypeptide fused with the human Fc fragment at the N-terminus (Fc-FGF21), wild type (from UniProt Q9NSA1) 168P-A",0.5
7,"mature human FGF21 polypeptide fused with the human Fc fragment at the N-terminus (Fc-FGF21), wild type (from UniProt Q9NSA1) 169G-R",2.2
8,"mature human FGF21 polypeptide fused with the human Fc fragment at the N-terminus (Fc-FGF21), wild type (from UniProt Q9NSA1) 172P-A",0.5
9,"mature human FGF21 polypeptide fused with the human Fc fragment at the N-terminus (Fc-FGF21), wild type (from UniProt Q9NSA1) 173A-R",0.6
10,"mature human FGF21 polypeptide fused with the human Fc fragment at the N-terminus (Fc-FGF21), wild type (from UniProt Q9NSA1) 175P-A",0.5
11,"mature human FGF21 polypeptide fused with the human Fc fragment at the N-terminus (Fc-FGF21), wild type (from UniProt Q9NSA1) 175P-R",1.4
12,"mature human FGF21 polypeptide fused with the human Fc fragment at the N-terminus (Fc-FGF21), wild type (from UniProt Q9NSA1) 176E-R",1.6
13,"mature human FGF21 polypeptide fused with the human Fc fragment at the N-terminus (Fc-FGF21), wild type (from UniProt Q9NSA1) 179G-A",1.3
14,"mature human FGF21 polypeptide fused with the human Fc fragment at the N-terminus (Fc-FGF21), wild type (from UniProt Q9NSA1) 179G-R",1
15,"mature human FGF21 polypeptide fused with the human Fc fragment at the N-terminus (Fc-FGF21), wild type (from UniProt Q9NSA1) 181L-A",0.5
16,"mature human FGF21 polypeptide fused with the human Fc fragment at the N-terminus (Fc-FGF21), wild type (from UniProt Q9NSA1) 181L-R",1.2
17,"mature human FGF21 polypeptide fused with the human Fc fragment at the N-terminus (Fc-FGF21), wild type (from UniProt Q9NSA1) 184Q-R",1.8
18,"mature human FGF21 polypeptide fused with the human Fc fragment at the N-terminus (Fc-FGF21), wild type (from UniProt Q9NSA1) 186P-A",12
19,"mature human FGF21 polypeptide fused with the human Fc fragment at the N-terminus (Fc-FGF21), wild type (from UniProt Q9NSA1) 187D-R",6

# Other lines, results leading:
row,ratio to parent,Substance
1,0.9,"mature human FGF21 polypeptide fused with the human Fc fragment at the N-terminus (Fc-FGF21), wild type (from UniProt Q9NSA1) 163R-A"
2,0.6,"mature human FGF21 polypeptide fused with the human Fc fragment at the N-terminus (Fc-FGF21), wild type (from UniProt Q9NSA1) 166P-A"
3,1,"mature human FGF21 polypeptide fused with the human Fc fragment at the N-terminus (Fc-FGF21), wild type (from UniProt Q9NSA1) 167L-R"
4,1.2,"mature human FGF21 polypeptide fused with the human Fc fragment at the N-terminus (Fc-FGF21), wild type (from UniProt Q9NSA1) 168P-R"
5,0.9,"mature human FGF21 polypeptide fused with the human Fc fragment at the N-terminus (Fc-FGF21), wild type (from UniProt Q9NSA1) 169G-A"
6,1,"mature human FGF21 polypeptide fused with the human Fc fragment at the N-terminus (Fc-FGF21), wild type (from UniProt Q9NSA1) 170L-A"
7,1,"mature human FGF21 polypeptide fused with the human Fc fragment at the N-terminus (Fc-FGF21), wild type (from UniProt Q9NSA1) 170L-R"
8,1.2,"mature human FGF21 polypeptide fused with the human Fc fragment at the N-terminus (Fc-FGF21), wild type (from UniProt Q9NSA1) 171P-A"
9,1.2,"mature human FGF21 polypeptide fused with the human Fc fragment at the N-terminus (Fc-FGF21), wild type (from UniProt Q9NSA1) 171P-R"
10,1.5,"mature human FGF21 polypeptide fused with the human Fc fragment at the N-terminus (Fc-FGF21), wild type (from UniProt Q9NSA1) 172P-R"
11,0.6,"mature human FGF21 polypeptide fused with the human Fc fragment at the N-terminus (Fc-FGF21), wild type (from UniProt Q9NSA1) 174P-A"
12,1.3,"mature human FGF21 polypeptide fused with the human Fc fragment at the N-terminus (Fc-FGF21), wild type (from UniProt Q9NSA1) 174P-R"
13,0.5,"mature human FGF21 polypeptide fused with the human Fc fragment at the N-terminus (Fc-FGF21), wild type (from UniProt Q9NSA1) 176E-A"
14,1,"mature human FGF21 polypeptide fused with the human Fc fragment at the N-terminus (Fc-FGF21), wild type (from UniProt Q9NSA1) 177P-A"
15,1.2,"mature human FGF21 polypeptide fused with the human Fc fragment at the N-terminus (Fc-FGF21), wild type (from UniProt Q9NSA1) 177P-R"
16,0.7,"mature human FGF21 polypeptide fused with the human Fc fragment at the N-terminus (Fc-FGF21), wild type (from UniProt Q9NSA1) 178P-A"
17,1.2,"mature human FGF21 polypeptide fused with the human Fc fragment at the N-terminus (Fc-FGF21), wild type (from UniProt Q9NSA1) 178P-R"
18,0.6,"mature human FGF21 polypeptide fused with the human Fc fragment at the N-terminus (Fc-FGF21), wild type (from UniProt Q9NSA1) 180I-A"
19,2.3,"mature human FGF21 polypeptide fused with the human Fc fragment at the N-terminus (Fc-FGF21), wild type (from UniProt Q9NSA1) 180I-R"
20,1.4,"mature human FGF21 polypeptide fused with the human Fc fragment at the N-terminus (Fc-FGF21), wild type (from UniProt Q9NSA1) 182A-R"
21,0.8,"mature human FGF21 polypeptide fused with the human Fc fragment at the N-terminus (Fc-FGF21), wild type (from UniProt Q9NSA1) 183P-A"
22,1,"mature human FGF21 polypeptide fused with the human Fc fragment at the N-terminus (Fc-FGF21), wild type (from UniProt Q9NSA1) 183P-R"
23,1.2,"mature human FGF21 polypeptide fused with the human Fc fragment at the N-terminus (Fc-FGF21), wild type (from UniProt Q9NSA1) 184Q-A"
24,1.3,"mature human FGF21 polypeptide fused with the human Fc fragment at the N-terminus (Fc-FGF21), wild type (from UniProt Q9NSA1) 185P-A"
25,1.6,"mature human FGF21 polypeptide fused with the human Fc fragment at the N-terminus (Fc-FGF21), wild type (from UniProt Q9NSA1) 185P-R"
26,14,"mature human FGF21 polypeptide fused with the human Fc fragment at the N-terminus (Fc-FGF21), wild type (from UniProt Q9NSA1) 187D-A"
